Here are results for 3 molecules from US20230174626A1 (GlaxoSmithKline, published 2023).

Test [1] concerns the target ULs (UL128, UL130, UL131A of the HCMV Pentamer) on TB40 virus (Human Cytomegalovirus (HCMV), TB40 virus). Briefly: cell-based or functional assay.
Test [2] concerns the target HCMV glycoprotein H (gH) on TB40 virus (Human Cytomegalovirus (HCMV), TB40 virus). Briefly: cell-based or functional assay.

B1: humanized 23C2 mAb (antibody, human IgG1, kappa, V domains shown)
VH: DVQLQESGPGLVKPSQSLSLTCSVTGYSIKSGYYWNWIRQFPGNKLEWMGYISYGGDFTYNPSLKNRISITRDTSKNQFFLKLNSVTTEDTATYFCVREPNWESYFDIWGAGTTVTVSS
VL: DIQMTQSPASLSASVGETVTITCRASDNIYSYLTWYHQKQGKSPHLLVYNAKTLPEGVPLRFSGTGSGTQFSLKINSLQPEDFGIYFCLHDYGFPRTFGGGTILEVKR
Take B1: in test [1], the “IC50 (µg/ml), HCMV TB40 neutralization on ARPE-19 epithelial cells” value (“IC50 (µg/ml) … on ARPE-19 epithelial cells” for short) stood at 0.0031 µg/mL and the “IC50 (µg/ml), HCMV TB40 neutralization on MRC-5 fibroblasts” value (shortened to “IC50 (µg/ml) … on MRC-5 fibroblasts”) is above 10 µg/mL.

B2: humanized 2C7 mAb (antibody, human IgG1, kappa, V domains shown)
VH: EVQLQQSGPELEKPGASVKISCKASGYSFTGYNMNWVKQSNGKSLEWIGNIDPYFGGTSYNQKFKGKATLTVDKSSSTAYMELKSLTSEDSAVYYCARHYGYFPWFAYWGQGTLVTVSA
VL: DIVLTQSPASLAVSLGQRATISCRASESVDSSGNSFMHWYQQKPGQPPKLLIYRASNLESGIPARFSGSGSRTDFTLTINPVGADDVATYYCQQSNEDPWTFGGGTKLEIKR
As to B2, in test [2], the “IC50 (µg/ml) … on ARPE-19 epithelial cells” value worked out at 0.0915 µg/mL and the “IC50 (µg/ml) … on MRC-5 fibroblasts” value was 0.53 µg/mL.

B3: humanized 26B6 mAb (antibody, human IgG1, kappa, V domains shown)
VH: EVQLVESGGGLVKPGGSLKLSCAASGFTITDYYIYWLRQTPEKKLEWVAAISDGGRYTDYPDSVKGRFTMSSDNAKTNLYLQMGSLQSDDTGMYYCARWASYGYHWYFDVWGAGTTVTVSS
VL: DIQMTQTTSSLSASLGDRVTISCSASQDISNYINWYQQKRDGTVKLLIYDSSSLHSGVPSRFSGSGSGTDYSLTISNLEPEDFATYFCQQYSNLPPTFGGGTNLEIKR
For the molecule B3, in test [1], the “IC50 (µg/ml) … on ARPE-19 epithelial cells” value stood at 0.00407 µg/mL and the “IC50 (µg/ml) … on MRC-5 fibroblasts” value was above 10 µg/mL.
